Reference: patent US20170253933A1, “COMPOSITIONS AND METHODS FOR TREATING AND DIAGNOSING CHEMOTHERAPY-RESISTANT CANCERS” (Genentech, Inc., priority 2014, published 2017)
Entries after “also recorded” stand apart in the source; their conditions may differ.

System: ES-2 cells
Assay: Chemotherapy resistance of ES-2 cells on protein-coated plates (Cell-Titre Glo viability, % growth benefit)
Format: cell-based
Excerpt: (A) Increased desmoplasia is correlated with POSTN expression and primary chemotherapy-resistance. Representative high magnification images of hematoxylin and eosin (H&E) staining of tumor specimens (upper panels) and POSTN ISH images (lower panel) are shown. Desmoplasia scores were defined as follows: 0=no desmoplasia, 1=few scattered desmoplastic foci abutting cancer cells, 2=several desmoplastic foci abutting cancer cells or moderate confluent (wider) desmoplasia, but not present throughout the section, 3=desmoplastic reaction throughout section, associated with most cancer cells. Labels: DS=desmoplastic stroma, NS=normal stroma, TC =tumor cells. Arrows point to examples of tumor cells. A dotted line encircles a region containing tumor cells. Size bars, 100 μm. (B) Summary of desmoplasia scores in 21 Plat-S primary, 18 Plat-R primary, and 21 Plat-R recurrent tumor specimens; (C) POSTN promotes chemotherapy-resistance in chemotherapy-sensitive ES2 ovarian cells in vitro. 96-well plates were coated with recombinant protein FN1 or POSTN or left uncoated before cells were plated into each well. 10 μM carboplatin or 10 nM taxol was then added to each well on the next day. Cell-Titre Glo® reagents were added at 72 hours after compound treatment to measure cell viability. The viability in coated wells was then compared with viability in uncoated wells to calculate % growth benefit. […]

B1: POSTN: recombinant full-length POSTN (Cat #3548-F2, R&D Systems) used to coat culture plates (protein, UniProt Q15063 22-836, looked up)
Periostin: NNHYDKILAHSRIRGRDQGPNVCALQQILGTKKKYFSTCKNWYKKSICGQKTTVLYECCPGYMRMEGMKGCPAVLPIDHVYGTLGIVGATTTQRYSDASKLREEIEGKGSFTYFAPSNEAWDNLDSDIRRGLESNVNVELLNALHSHMINKRMLTKDLKNGMIIPSMYNNLGLFINHYPNGVVTVNCARIIHGNQIATNGVVHVIDRVLTQIGTSIQDFIEAEDDLSSFRAAAITSDILEALGRDGHFTLFAPTNEAFEKLPRGVLERIMGDKVASEALMKYHILNTLQCSESIMGGAVFETLEGNTIEIGCDGDSITVNGIKMVNKKDIVTNNGVIHLIDQVLIPDSAKQVIELAGKQQTTFTDLVAQLGLASALRPDGEYTLLAPVNNAFSDDTLSMDQRLLKLILQNHILKVKVGLNELYNGQILETIGGKQLRVFVYRTAVCIENSCMEKGSKQGRNGAIHIFREIIKPAEKSLHEKLKQDKRFSTFLSLLEAADLKELLTQPGDWTLFVPTNDAFKGMTSEEKEILIRDKNALQNIILYHLTPGVFIGKGFEPGVTNILKTTQGSKIFLKEVNDTLLVNELKSKESDIMTTNGVIHVVDKLLYPADTPVGNDQLLEILNKLIKYIQIKFVRGSTFKEIPVTVYTTKIITKVVEPKIKVIEGSLQPIIKTEGPTLTKVKIEGEPEFRLIKEGETITEVIHGEPIIKKYTKIIDGVPVEITEKETREERIITGPEIKYTRISTGGGETEETLKKLLQEEVTKVTKFIEGGDGHLFEDEEIKRLLQGDTPVRKLQANKKVQGSRRRLREGRSQ
How did the “cell growth with coating alone” value (ES-2 cells on coated plates, in the absence of chemotherapy treatment) turn out when B1 was run?
The value was “small increase in cell growth”.

And the “resistance to carboplatin or paclitaxel treatment (viability in coated wells vs uncoated wells, % growth benefit)” value (ES-2 ovarian cancer cells on coated plates, 10 μM carboplatin or 10 nM paclitaxel, viability at 72 hours)?
Its value is “became resistant to carboplatin and paclitaxel treatment; also recorded: significantly more resistant to carboplatin or paclitaxel treatment”.
